Measured values from US20210079060A1 (ALETA BIOTHERAPEUTICS, published 2021).
Values joined by “and” are separate entries in the source; they are usually repeats but may differ in a detail not shown here. Equal entries are not always repeated. Where two headings read alike, the source gives them in different places.

Tests used:
[1] = target: T1, Clec12A (human, UniProt Q5QGZ9 1-265); assay: sandwich ELISA: coated with FMC63, construct titrated (x-axis ug/ml), followed by Clec12A-bio, detected by HRP-SA
T1 construct: whole, on cells; also called CLL-1; MICL
T1 sequence (looked up): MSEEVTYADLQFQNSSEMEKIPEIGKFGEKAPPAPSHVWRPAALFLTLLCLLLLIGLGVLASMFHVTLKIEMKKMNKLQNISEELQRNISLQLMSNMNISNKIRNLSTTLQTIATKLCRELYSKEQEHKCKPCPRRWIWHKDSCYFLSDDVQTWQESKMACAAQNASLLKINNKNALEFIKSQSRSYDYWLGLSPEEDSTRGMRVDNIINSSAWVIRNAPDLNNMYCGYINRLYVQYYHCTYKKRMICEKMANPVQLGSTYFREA

[2] = target: T1, Clec12A; assay: binding to U937 cells; supernatant; MW = 46kDa
[3] = target: T1, Clec12A; assay: binding to U937 cells; supernatant
[4] = target: T1, Clec12A; assay: sandwich ELISA: coated with FMC63, construct titrated (x-axis ug/ml), followed by Clec12A-bio, detected by HRP-SA; remark: listed apart in the source

B1: #290 (VHH)
fusion protein, single chain: PEEPLVVKVEEGDTAVLPCLKGTSDGPTQQLTWSRESPLKPFLKYSLGVPGLGVHVRPDAISVVIRNVSQQMGGFYLCQPGPPSEKAWQPGWTVNVEGSGELFRWNVSDLGGLGCGLKNRSSEGPSSPSGKLMSPKLYVWAKDRPEIWEGEPPCLPPRDSLNQSLSQDLTMAPGSTLWLSCGVPPDSVSRGPLSWTHVHPKGPKSLLSLELKDDRPAREMIVDETGLLLPRATAQDAGKWYCSRGNVTTSYHLEITARPVKAHSDLRTGGWKGGGGSGGGGSGGGGSGGGGSQVQLQESGGGLVQPGGSLRLSCAASGFTFNSYAMTWVRQAPGKGLEWVSDINSGGGSTNYADSVKGRFTISRDNAKNTLYLQMNSLKPEDTAVYYCATELRGSDYYRGPIREYAYWGQGTLVTVSSTSGPGGQGAEQKLISEEDLGAHHHHHHGAS
notes: also called construct #290; CD19 mutant #2-G4Sx4-anti CLEC12a VHH 1H1-His
With B1 the “C of the 4-P fit (midpoint)” value [1] was 0.037 µg/mL and the EC50 [1] was 0.037 µg/mL and 0.796 nM.

B2: CD19 mutant #2-G4Sx4-anti CLEC12a VHH 2H3-myc-His (VHH)
chain: PEEPLVVKVEEGDTAVLPCLKGTSDGPTQQLTWSRESPLKPFLKYSLGVPGLGVHVRPDAISVVIRNVSQQMGGFYLCQPGPPSEKAWQPGWTVNVEGSGELFRWNVSDLGGLGCGLKNRSSEGPSSPSGKLMSPKLYVWAKDRPEIWEGEPPCLPPRDSLNQSLSQDLTMAPGSTLWLSCGVPPDSVSRGPLSWTHVHPKGPKSLLSLELKDDRPAREMIVDETGLLLPRATAQDAGKWYCSRGNVTTSYHLEITARPVKAHSDLRTGGWKGGGGSGGGGSGGGGSGGGGSQVQLQESGGGLVQAGGSLRLSCVASGSIRSINVMGWYRQAPGKQRELVAACASDGNTYYADSVKGRFTISRDNAEKTVYLQMNNLKPDDTAVYYCDANSRGNYYSGQGTQVTVSSTSGPGGQGAEQKLISEEDLGAHHHHHHGAS
notes: CD19 variant-VHH fusion
For B2, the “C of the 4-P fit (midpoint)” value [1] was 0.0201 µg/mL, the EC50 [1] was 0.0201 µg/mL and 0.432 nM and the EC50 [2] was 4.87 nM. The EC50 [3] was 0.224 mg/L.

B3: #333 (VHH)
fusion protein, single chain: PEEPLVVKVEEGDTAVLPCLKGTSDGPTQQLTWSRESPLKPFLKYSLGVPGLGVHVRPDAISVVIRNVSQQMGGFYLCQPGPPSEKAWQPGWTVNVEGSGELFRWNVSDLGGLGCGLKNRSSEGPSSPSGKLMSPKLYVWAKDRPEIWEGEPPCLPPRDSLNQSLSQDLTMAPGSTLWLSCGVPPDSVSRGPLSWTHVHPKGPKSLLSLELKDDRPAREMIVDETGLLLPRATAQDAGKWYCSRGNVTTSYHLEITARPVKAHSDLRTGGWKGGGGSGGGGSGGGGSGGGGSQVQLQESGGGLVQVGESLRLSCVVSGDTRSINLMGWYRQAPGKQRELVAACASDGNTYYADSVKGRFTISRDNAEKTVYLQMNNLKPDDTAVYYCDANSRGNYYSGQGTLVTVSSTSGPGGQGAEQKLISEEDLGAHHHHHHGAS
notes: also called CD19 mutant #2-G4Sx4-anti CLEC12a VHH 1A10-His
B3 was tested, and the “C of the 4-P fit (midpoint)” value [1] was 0.0106 µg/mL and the EC50 [1] was 0.0106 µg/mL and 0.228 nM.

B4: CD19 mutant #2-G4Sx4-anti CLEC12a VHH 2F3-myc-His (VHH)
chain: PEEPLVVKVEEGDTAVLPCLKGTSDGPTQQLTWSRESPLKPFLKYSLGVPGLGVHVRPDAISVVIRNVSQQMGGFYLCQPGPPSEKAWQPGWTVNVEGSGELFRWNVSDLGGLGCGLKNRSSEGPSSPSGKLMSPKLYVWAKDRPEIWEGEPPCLPPRDSLNQSLSQDLTMAPGSTLWLSCGVPPDSVSRGPLSWTHVHPKGPKSLLSLELKDDRPAREMIVDETGLLLPRATAQDAGKWYCSRGNVTTSYHLEITARPVKAHSDLRTGGWKGGGGSGGGGSGGGGSGGGGSQVQLQAFGGGLVQPGGSLRLSCVVSGTMFSGKDVNWLRQAPGKHVEVVATVSSDGGTDYADFVKGRFTISRDDAKNTVNLQMNSLEPEDTANYMCHFLWGRHYWGQGTQVTVSSTSGPGGQGAEQKLISEEDLGAHHHHHHGAS
notes: CD19 variant-VHH fusion
For B4, the EC50 [2] was 3.76 nM and the EC50 [3] was 0.173 mg/L.

B5: anti-CLEC12a VHH 1B12-G4Sx4-CD19 D1+2 C term mutant #2-His (VHH)
VHH: QVQLQASGGGLVQAGGSLRLSCAASGSIFAINEINLMGWYRQAPGKQRELVAACASDGNTYYADSVKGRFTISRDNAEKTVYLQMNNLKPDDTAVYYCDANSRGNYYSGQGTQVTVSS
B5 was tested, and the “C of the 4-P fit (midpoint)” value [4] was 0.015 µg/mL and the EC50 [4] was 0.015 µg/mL and 0.323 nM.

B6: #329 (VHH)
VHH: QVQLQQSGGGLAQTGGSLILSCAASGSIFAINEINLMGWYRQAPGKQRELVAACASDGNTYYADSVKGRFTISRDNAEKTVYLQMNNLKPDDTAVYYCDANSRGNYYSGQGTQVTVSS
notes: also called anti CLEC12a VHH 2F5-G4Sx4-CD19 C-term mutant #2-His
In the case of B6, the “C of the 4-P fit (midpoint)” value [4] is reported as 0.0107 µg/mL and the EC50 [4] is reported as 0.0107 µg/mL and 0.23 nM.

B7: anti-CLEC12a VHH 1B1-G4Sx4-CD19 D1+2 C term mutant #2-His (VHH)
VHH: QVQLQESGGGLVQAGGSLRLSCAASGSIFAINEINLMGWYRQAPGKQRELVAACASDGNTYYADSVKGRFTISRDNAEKTVYLQMNNLKPDDTAVYYCDANSRGNYYSGQGTQVTVSS
B7 was tested, and the “C of the 4-P fit (midpoint)” value [4] was 0.00648 µg/mL and the EC50 [4] was 0.0065 µg/mL and 0.14 nM.

B8: CD19 mutant #2-G4Sx4-anti CLEC12a VHH 1G6-myc-His (VHH)
chain: PEEPLVVKVEEGDTAVLPCLKGTSDGPTQQLTWSRESPLKPFLKYSLGVPGLGVHVRPDAISVVIRNVSQQMGGFYLCQPGPPSEKAWQPGWTVNVEGSGELFRWNVSDLGGLGCGLKNRSSEGPSSPSGKLMSPKLYVWAKDRPEIWEGEPPCLPPRDSLNQSLSQDLTMAPGSTLWLSCGVPPDSVSRGPLSWTHVHPKGPKSLLSLELKDDRPAREMIVDETGLLLPRATAQDAGKWYCSRGNVTTSYHLEITARPVKAHSDLRTGGWKGGGGSGGGGSGGGGSGGGGSQVQLQQSGGGLVQAGGSLRLSCAASGSIFAINEINLMGWYRQAPGKQRELVAACASDGNTYYADSVKGRFTISRDNAEKTVYLQMNNLKPDDTAVYYCDANSRGNYYSGQGTQVTVSSTSGPGGQGAEQKLISEEDLGAHHHHHHGAS
notes: CD19 variant-VHH fusion
B8 was tested, and the “C of the 4-P fit (midpoint)” value [1] was 0.0113 µg/mL, the EC50 [1] was 0.0113 µg/mL and 0.243 nM and the EC50 [2] was 3.4 nM. For the same binder, the EC50 [3] was 0.157 mg/L.

B9: #335 (VHH)
fusion protein, single chain: PEEPLVVKVEEGDTAVLPCLKGTSDGPTQQLTWSRESPLKPFLKYSLGVPGLGVHVRPDAISVVIRNVSQQMGGFYLCQPGPPSEKAWQPGWTVNVEGSGELFRWNVSDLGGLGCGLKNRSSEGPSSPSGKLMSPKLYVWAKDRPEIWEGEPPCLPPRDSLNQSLSQDLTMAPGSTLWLSCGVPPDSVSRGPLSWTHVHPKGPKSLLSLELKDDRPAREMIVDETGLLLPRATAQDAGKWYCSRGNVTTSYHLEITARPVKAHSDLRTGGWKGGGGSGGGGSGGGGSGGGGSQVQLVESGGGLVQAGGSLRLSCAASGSIFAINEINLMGWYRQAPGKQRELVAACASDGNTYYADSVKGRFTISRDNAEKTVYLQMNNLKPDDTAVYYCDANSRGNYYSGQGTLVTVSSTSGPGGQGAEQKLISEEDLGAHHHHHHGAS
notes: also called CD19 mutant #2-G4Sx4-anti CLEC12a VHH 2C8-His
With B9 the “C of the 4-P fit (midpoint)” value [1] was 0.0108 µg/mL and the EC50 [1] was 0.0108 µg/mL and 0.232 nM.

B10: #334 (VHH)
fusion protein, single chain: PEEPLVVKVEEGDTAVLPCLKGTSDGPTQQLTWSRESPLKPFLKYSLGVPGLGVHVRPDAISVVIRNVSQQMGGFYLCQPGPPSEKAWQPGWTVNVEGSGELFRWNVSDLGGLGCGLKNRSSEGPSSPSGKLMSPKLYVWAKDRPEIWEGEPPCLPPRDSLNQSLSQDLTMAPGSTLWLSCGVPPDSVSRGPLSWTHVHPKGPKSLLSLELKDDRPAREMIVDETGLLLPRATAQDAGKWYCSRGNVTTSYHLEITARPVKAHSDLRTGGWKGGGGSGGGGSGGGGSGGGGSQVQLQESGGGLVQAGGSLRLSCAASGSIFAINEINLMGWYRQAPGKQRELVAACASDGNTYYADSVKGRFTISRDNAEKTVYLQMNNLKPDDTAVYYCDANSRGNYYSGQGTQVTVSSTSGPGGQGAEQKLISEEDLGAHHHHHHGAS
notes: also called CD19 mutant #2-G4Sx4-anti CLEC12a VHH 1B1-His
B10 was tested, and the “C of the 4-P fit (midpoint)” value [1] was 0.0112 µg/mL and the EC50 [1] was 0.0112 µg/mL and 0.241 nM.

B11: anti-CLEC12a VHH 1A10-CD19 D1+2 C term mutant #2 (VHH)
VHH: QVQLQESGGGLVQVGESLRLSCVVSGDTRSINLMGWYRQAPGKQRELVAACASDGNTYYADSVKGRFTISRDNAEKTVYLQMNNLKPDDTAVYYCDANSRGNYYSGQGTLVTVSS
In the case of B11, the “C of the 4-P fit (midpoint)” value [4] is reported as 0.00751 µg/mL and the EC50 [4] is reported as 0.0075 µg/mL and 0.161 nM.
